{
  "source": "patent US4254225A",
  "about": "“Novel neutral glucoamylase and method for its production” (priority 1978, dated 1981)",
  "molecules": {"B1": {"name": "Aspergillus niger Glucoamylase: conventional glucoamylase from Aspergillus niger, available from Enzyme Development Corporation (protein, UniProt P69328 25-640, looked up)", "Glucoamylase": "ATLDSWLSNEATVARTAILNNIGADGAWVSGADSGIVVASPSTDNPDYFYTWTRDSGLVLKTLVDLFRNGDTSLLSTIENYISAQAIVQGISNPSGDLSSGAGLGEPKFNVDETAYTGSWGRPQRDGPALRATAMIGFGQWLLDNGYTSTATDIVWPLVRNDLSYVAQYWNQTGYDLWEEVNGSSFFTIAVQHRALVEGSAFATAVGSSCSWCDSQAPEILCYLQSFWTGSFILANFDSSRSGKDANTLLGSIHTFDPEAACDDSTFQPCSPRALANHKEVVDSFRSIYTLNDGLSDSEAVAVGRYPEDTYYNGNPWFLCTLAAAEQLYDALYQWDKQGSLEVTDVSLDFFKALYSDAATGTYSSSSSTYSSIVDAVKTFADGFVSIVETHAASNGSMSEQYDKSDGEQLSARDLTWSYAALLTANNRRNSVVPASWGETSASSVPGTCAATSAIGTYSSVTVTSWPSIVATGGTTTTATPTGSGSVTSTSKTTATASKTSTSTSSTSCTTPTAVAVTFDLTATTTYGENIYLVGSISQLGDWETSDGIALSADKYTSSDPLWYVTVTLPAGESFEYKFIRIESDDSVEWESDPNREYTVPQACGTSTATVTDTWR"}},
  "key": {"[1]": {"assay": "Substrate specificity: reaction rate on various substrates at 1% concentration", "type": "biochemical", "method": "^a The enzymatic activities of each glucoamylase were determined with\nthe substrates present at a 1% concentration; each enzyme' s activity in\nrelation to dextrin was assigned the value 100, and the activities on the\nother substrates are presented as relative\n(§1) A 0.5-ml aliquot of a suitably diluted enzyme solution was added to 0.5 ml of a 2% solution of a spray-dried maltodextrin (D.E. about 10) in 0.1 M acetate buffer solution (pH 6.0) and this was incubated at 60° C. for precisely 10 minutes. The enzyme reaction was then stopped by heating the mixture for 5 minutes in a boiling water bath. The amount of dextrose produced was determined by the glucose oxidase method. The amount of enzyme producing 1 micromole of dextrose per minute was defined as 1 unit."}, "[2]": {"assay": "Relationship between reaction pH and enzymatic activity (optimum pH)", "type": "biochemical", "conditions": "values marked with an asterisk (own)", "method": "as §1"}, "[3]": {"type": "biochemical", "conditions": "values marked with an asterisk (own)"}, "[4]": {"assay": "Saccharification of about 30% starch hydrolyzate to dextrose", "type": "biochemical", "conditions": "same substrate concentration as Example 3; pH 4.3 at 60° C."}},
  "data": [
    {"molecule": "B1", "values": [
      {"measurement": "Reaction Rate", "setting": "[1]; substrate Amylpectin, relative to dextrin = 100", "result": 113},
      {"measurement": "Reaction Rate", "setting": "[1]; substrate Dextrin (D.E. 10), relative, activity on dextrin assigned 100", "result": 100},
      {"measurement": "Reaction Rate", "setting": "[1]; substrate Glycogen, relative to dextrin = 100", "result": 100},
      {"measurement": "Reaction Rate", "setting": "[1]; substrate Maltohexaose, relative to dextrin = 100", "result": 100},
      {"measurement": "Reaction Rate", "setting": "[1]; substrate Maltose, relative to dextrin = 100", "result": 26},
      {"measurement": "Reaction Rate", "setting": "[1]; substrate Maltotriose, relative to dextrin = 100", "result": 12},
      {"measurement": "Reaction Rate", "setting": "[1]; substrate Panose, relative to dextrin = 100", "result": 47},
      {"measurement": "Reaction Rate", "setting": "[1]; substrate Pullulan, relative to dextrin = 100", "result": 2},
      {"measurement": "Reaction Rate", "setting": "[1]; substrate Soluble Starch, relative to dextrin = 100", "result": 95},
      {"measurement": "Optimum pH", "setting": "[2]", "result": 4.5},
      {"measurement": "Optimum Temp.", "setting": "[3]", "result": 70, "unit": "°C"},
      {"measurement": "dextrose yield", "setting": "[4]", "result": 96.5, "unit": "%"}
    ]}
  ]
}
